Measured values as given in the Immune Epitope Database (IEDB).

Legend:
HLA-A*01:01 [1] = test: IEDB peptide-MHC binding, purified MHC/competitive/fluorescence; ≥ and ≤ were set here for values at or beyond the usual limits of such assays
HLA-A*24:02 = test: as above; details: source organism: Zaire ebolavirus
HLA-C*03:03 = test: IEDB peptide-MHC binding, purified MHC/direct/fluorescence; filed as Kd, often an IC50 or EC50 that approximates it; ≥ and ≤ were set here for values at or beyond the usual limits of such assays
HLA-C*07:02 = test: as above; details: source organism: Mycobacterium tuberculosis variant bovis BCG str. Pasteur 1173P2
HLA-B*46:01 = test: IEDB peptide-MHC binding, purified MHC/competitive/fluorescence; filed as Kd, often an IC50 or EC50 that approximates it; ≥ and ≤ were set here for values at or beyond the usual limits of such assays; details: source organism: Mycobacterium tuberculosis variant bovis BCG str. Pasteur 1173P2
HLA-A*02:01 [2] = test: IEDB peptide-MHC binding, purified MHC/direct/fluorescence; filed as Kd, often an IC50 or EC50 that approximates it; ≥ and ≤ were set here for values at or beyond the usual limits of such assays
HLA-A*69:01 = test: as above
HLA-B*51:01 [3] = test: as above; details: source organism: Giardia lamblia ATCC 50803
HLA-C*05:01 = test: as above
HLA-B*15:42 = test: IEDB peptide-MHC binding, purified MHC/competitive/fluorescence; filed as Kd, often an IC50 or EC50 that approximates it; ≥ and ≤ were set here for values at or beyond the usual limits of such assays; details: source organism: Giardia lamblia ATCC 50803
HLA-B*45:06 = test: as above; details: source organism: Giardia lamblia ATCC 50803
HLA-B*83:01 = test: as above; details: source organism: Giardia lamblia ATCC 50803
HLA-A*01:01 [4] = test: IEDB peptide-MHC binding, purified MHC/direct/fluorescence; filed as Kd, often an IC50 or EC50 that approximates it; ≥ and ≤ were set here for values at or beyond the usual limits of such assays
HLA-A*11:01 [5] = test: as above
HLA-A*24:03 = test: as above
HLA-A*26:01 = test: as above
HLA-A*26:02 = test: as above; details: source organism: Variola virus
HLA-A*26:03 = test: as above; details: source organism: Variola virus
HLA-A*31:01 [6] = test: as above
HLA-A*68:02 [7] = test: as above; details: source organism: Camelpox virus M-96
HLA-B*08:02 = test: as above; details: source organism: Variola virus
HLA-B*15:01 [8] = test: as above
HLA-B*15:17 = test: as above
HLA-B*18:01 = test: as above; details: source organism: Camelpox virus M-96
HLA-B*57:01 = test: as above
HLA-B*58:01 = test: as above
HLA-B*07:02 [9] = test: IEDB peptide-MHC binding, purified MHC/competitive/fluorescence; filed as Kd, often an IC50 or EC50 that approximates it; ≥ and ≤ were set here for values at or beyond the usual limits of such assays; details: source organism: Variola virus
HLA-B*08:01 [10] = test: as above; details: source organism: Variola virus
HLA-A*02:12 = test: IEDB peptide-MHC binding, purified MHC/direct/fluorescence; filed as Kd, often an IC50 or EC50 that approximates it; ≥ and ≤ were set here for values at or beyond the usual limits of such assays
HLA-A*02:50 = test: IEDB peptide-MHC binding, purified MHC/competitive/fluorescence; filed as Kd, often an IC50 or EC50 that approximates it; ≥ and ≤ were set here for values at or beyond the usual limits of such assays
HLA-B*35:01 = test: as above; details: source organism: West Nile virus
HLA-B*51:01 [11] = test: as above
HLA-A*02:01 [12] = test: IEDB peptide-MHC binding, purified MHC/competitive/fluorescence; ≥ and ≤ were set here for values at or beyond the usual limits of such assays; details: source organism: Zaire ebolavirus
HLA-A*03:01 [13] = test: IEDB peptide-MHC binding, purified MHC/direct/fluorescence; filed as Kd, often an IC50 or EC50 that approximates it; ≥ and ≤ were set here for values at or beyond the usual limits of such assays; details: source organism: Salmonella enterica
HLA-B*07:02 [14] = test: as above; details: source organism: Salmonella enterica
HLA-B*08:01 [15] = test: as above; details: source organism: Salmonella enterica
HLA-B*27:05 = test: as above; details: source organism: Salmonella enterica
HLA-B*40:01 = test: as above; details: source organism: Salmonella enterica
HLA-B*44:02 = test: as above; details: source organism: Salmonella enterica
HLA-A*68:02 [16] = test: IEDB peptide-MHC binding, purified MHC/competitive/fluorescence; filed as Kd, often an IC50 or EC50 that approximates it; ≥ and ≤ were set here for values at or beyond the usual limits of such assays; details: source organism: Entamoeba histolytica HM-1:IMSS
HLA-A*03:01 [17] = test: IEDB peptide-MHC binding, purified MHC/competitive/fluorescence; ≥ and ≤ were set here for values at or beyond the usual limits of such assays; details: source organism: Vaccinia virus Copenhagen
HLA-A*11:01 [18] = test: as above; details: source organism: Vaccinia virus Copenhagen
HLA-B*15:01 [19] = test: as above; details: source organism: Vaccinia virus Copenhagen
HLA-A*31:01 [20] = test: IEDB peptide-MHC binding, purified MHC/competitive/radioactivity; filed as Kd, often an IC50 or EC50 that approximates it; ≥ and ≤ were set here for values at or beyond the usual limits of such assays; details: source organism: Vaccinia virus WR
HLA-A*33:01 = test: as above; details: source organism: Vaccinia virus WR
HLA-A*68:01 = test: as above; details: source organism: Vaccinia virus WR
[21] = source organism: Zaire ebolavirus
[22] = source organism: Marburg virus - Musoke, Kenya, 1980
[23] = source organism: Giardia lamblia ATCC 50803
[24] = source organism: Camelpox virus M-96
[25] = source organism: Vibrio vulnificus
[26] = source organism: Vibrio vulnificus CMCP6
[27] = source organism: West Nile virus
[28] = source organism: Salmonella enterica
[29] = source organism: Salmonella enterica subsp. enterica serovar Typhimurium
[30] = source organism: Mammarenavirus juninense
[31] = source organism: Vaccinia virus
[32] = source organism: Burkholderia mallei
[33] = source organism: Burkholderia mallei ATCC 23344

Question: Which results are given for EIDTTIGEW?
Answer: IC50 (HLA-A*01:01 [1]; [21]): ≥ 494 µM; IC50 (HLA-A*24:02): ≥ 81.7 µM

Question: What does the source list for FLLDGGAPF?
Answer: Kd (HLA-C*03:03; source organism: Mycobacterium tuberculosis variant bovis BCG str. Pasteur 1173P2): ≤ 0.001 µM; Kd (HLA-C*07:02): 0.527 µM; Kd (HLA-B*46:01): 0.0212 µM

Question: For FLLDYEGTL, which Kd (HLA-A*02:01 [2]; [22]) is on record?
Answer: 0.006 µM

Question: And the Kd (HLA-A*69:01; [22])?
Answer: 0.437 µM

Question: And the Kd (HLA-C*03:03; source organism: Orthomarburgvirus marburgense)?
Answer: ≤ 0.001 µM

Question: Which Kd (HLA-B*51:01 [3]) does the source give for FPMIIGSEL here?
Answer: 2.13 µM

Question: And the Kd (HLA-C*05:01; [23])?
Answer: ≥ 20 µM

Question: And the Kd (HLA-B*15:42)?
Answer: ≥ 5 µM

Question: And the Kd (HLA-B*45:06)?
Answer: ≥ 5 µM

Question: What about the Kd (HLA-B*83:01) of the same sequence?
Answer: 0.156 µM

Question: What does the source list for IFLIITKVF?
Answer: Kd (HLA-A*01:01 [4]; [24]): ≥ 20 µM; Kd (HLA-A*02:01 [2]; [24]): ≥ 20 µM; Kd (HLA-A*11:01 [5]; [24]): ≥ 20 µM; Kd (HLA-A*24:03; [24]): 1.1 µM; Kd (HLA-A*26:01; source organism: Variola virus): ≥ 20 µM; Kd (HLA-A*26:02): ≥ 20 µM; Kd (HLA-A*26:03): ≥ 20 µM; Kd (HLA-A*31:01 [6]; [24]): ≥ 20 µM; Kd (HLA-A*68:02 [7]): ≥ 20 µM; Kd (HLA-A*69:01; [24]): ≥ 20 µM; Kd (HLA-B*08:02): ≥ 20 µM; Kd (HLA-B*15:01 [8]; [24]): ≥ 20 µM; Kd (HLA-B*15:17; [24]): ≥ 20 µM; Kd (HLA-B*18:01): ≥ 20 µM; Kd (HLA-B*57:01; [24]): ≥ 20 µM; Kd (HLA-B*58:01; [24]): ≥ 20 µM; Kd (HLA-B*07:02 [9]): 3 µM; Kd (HLA-B*08:01 [10]): ≥ 20 µM

Question: Which Kd (HLA-C*05:01; source organism: Vaccinia virus WR) does the source give for KIDDMIEEV here?
Answer: 0.124 µM

Question: KLTSYSAGL was tested. Which Kd (HLA-A*02:01 [2]; [25]) did it give?
Answer: 0.021 µM

Question: What about the Kd (HLA-A*02:12; [26]) of the same sequence?
Answer: 0.007 µM

Question: And the Kd (HLA-A*69:01; [25])?
Answer: 15.1 µM

Question: What about the Kd (HLA-A*02:50; [26]) of the same sequence?
Answer: ≤ 0.0001 µM

Question: How did the Kd (HLA-B*15:17; [27]) turn out when LAVSAYTPW was run?
Answer: 0.005 µM

Question: What about the Kd (HLA-B*57:01; [27]) of the same sequence?
Answer: 0.086 µM

Question: What about the Kd (HLA-C*03:03; [27]) of the same sequence?
Answer: ≤ 0.001 µM

Question: And the Kd (HLA-B*35:01)?
Answer: 0.0057 µM

Question: And the Kd (HLA-B*51:01 [11]; [27])?
Answer: ≥ 20 µM

Question: What does the source list for LFEVDNLTY?
Answer: IC50 (HLA-A*01:01 [1]; [21]): 69.1 µM; IC50 (HLA-A*02:01 [12]): ≥ 210 µM; IC50 (HLA-A*24:02): 66.5 µM

Question: How did the Kd (HLA-A*01:01 [4]; [28]) turn out when LLQGVPFHV was run?
Answer: ≥ 20 µM

Question: And the Kd (HLA-A*02:01 [2]; [29])?
Answer: 0.109 µM

Question: And the Kd (HLA-A*03:01 [13])?
Answer: ≥ 20 µM

Question: What about the Kd (HLA-A*11:01 [5]; [28]) of the same sequence?
Answer: ≥ 20 µM

Question: What about the Kd (HLA-A*24:03; [28]) of the same sequence?
Answer: ≥ 20 µM

Question: What about the Kd (HLA-A*26:01; [28]) of the same sequence?
Answer: ≥ 20 µM

Question: And the Kd (HLA-A*31:01 [6]; [29])?
Answer: 1.81 µM

Question: And the Kd (HLA-A*69:01; [29])?
Answer: 0.289 µM

Question: What about the Kd (HLA-B*07:02 [14]) of the same sequence?
Answer: ≥ 20 µM

Question: What about the Kd (HLA-B*08:01 [15]) of the same sequence?
Answer: ≥ 20 µM

Question: And the Kd (HLA-B*15:01 [8]; [28])?
Answer: ≥ 20 µM

Question: And the Kd (HLA-B*27:05)?
Answer: ≥ 20 µM

Question: What about the Kd (HLA-B*40:01) of the same sequence?
Answer: ≥ 20 µM

Question: What about the Kd (HLA-B*44:02) of the same sequence?
Answer: ≥ 20 µM

Question: What about the Kd (HLA-B*58:01; [28]) of the same sequence?
Answer: ≥ 20 µM

Question: What about the Kd (HLA-A*02:50; source organism: Salmonella enterica subsp. enterica serovar Paratyphi B str. SPB7) of the same sequence?
Answer: ≤ 0.0001 µM

Question: For MPVSIPTPI, which Kd (HLA-C*05:01; [23]) is on record?
Answer: ≥ 20 µM

Question: What about the Kd (HLA-B*51:01 [11]; [23]) of the same sequence?
Answer: 0.34 µM

Question: MVPKSFTYS was tested. Which Kd (HLA-A*68:02 [16]) did it give?
Answer: 0.0762 µM

Question: RATQPAAEF was tested. Which Kd (HLA-B*58:01; [30]) did it give?
Answer: 0.0129 µM

Question: What about the Kd (HLA-C*05:01; [30]) of the same sequence?
Answer: 1.74 µM

Question: Which results are given for TLNHNCINV?
Answer: Kd (HLA-A*02:01 [2]; source organism: Cowpox virus): 0.404 µM; Kd (HLA-A*02:12; [31]): 0.019 µM; Kd (HLA-A*69:01; source organism: Cowpox virus): 0.136 µM; Kd (HLA-A*02:50; [31]): 0.0002 µM

Question: VTAASPMLY was tested. Which IC50 (HLA-A*01:01 [1]; source organism: Vaccinia virus Copenhagen) did it give?
Answer: 1.29 µM

Question: And the IC50 (HLA-A*03:01 [17])?
Answer: 10.5 µM

Question: What about the IC50 (HLA-A*11:01 [18]) of the same sequence?
Answer: 1.17 µM

Question: And the IC50 (HLA-B*15:01 [19])?
Answer: 4.45 µM

Question: And the Kd (HLA-A*31:01 [20])?
Answer: ≥ 77.9 µM

Question: What about the Kd (HLA-A*33:01) of the same sequence?
Answer: 14.5 µM

Question: What about the Kd (HLA-A*68:01) of the same sequence?
Answer: 0.861 µM

Question: Which results are given for YLACKQHAL?
Answer: Kd (HLA-A*02:01 [2]; [32]): 0.0625 µM; Kd (HLA-A*69:01; [32]): 0.291 µM; Kd (HLA-C*03:03; [33]): 0.024 µM; Kd (HLA-A*02:50; [33]): ≤ 0.0001 µM
